Test results reported in paper PMC12233092, “NSUN2-mediated HCV RNA m5C Methylation Facilitates Viral RNA Stability and Replication”.

How the values were obtained:
Conditions in all cases: protein: recombinant; tags: 6xHis; blunt
E2F1 [1] = target: T1, E2F1 (Homo sapiens? (cDNA amplified, Huh7.5.1 …, UniProt Q01094 1-437)); assay: EMSA; E2F1 50-400 nM, probe 10 nM; EMSA binding buffer (Beyotime GS005; composition and pH not given), room temperature, 30 min; 8% TBE agarose gel as stated, on ice, 80 V 1.5 h
E2F1 [2] = target: T1, E2F1; assay: competition; 10 uM unlabeled competitor vs 10 nM FAM-labeled N1; interaction abrogated; EMSA binding buffer (Beyotime GS005; composition and pH not given), room temperature, 30 min; 8% TBE agarose gel as stated, on ice, 80 V 1.5 h
E2F1 [3] = target: T1, E2F1; assay: EMSA; probe 10 nM; EMSA binding buffer (Beyotime GS005; composition and pH not given), room temperature, 30 min; 8% TBE agarose gel as stated, on ice, 80 V 1.5 h

T1 sequence (Q01094 whole entry): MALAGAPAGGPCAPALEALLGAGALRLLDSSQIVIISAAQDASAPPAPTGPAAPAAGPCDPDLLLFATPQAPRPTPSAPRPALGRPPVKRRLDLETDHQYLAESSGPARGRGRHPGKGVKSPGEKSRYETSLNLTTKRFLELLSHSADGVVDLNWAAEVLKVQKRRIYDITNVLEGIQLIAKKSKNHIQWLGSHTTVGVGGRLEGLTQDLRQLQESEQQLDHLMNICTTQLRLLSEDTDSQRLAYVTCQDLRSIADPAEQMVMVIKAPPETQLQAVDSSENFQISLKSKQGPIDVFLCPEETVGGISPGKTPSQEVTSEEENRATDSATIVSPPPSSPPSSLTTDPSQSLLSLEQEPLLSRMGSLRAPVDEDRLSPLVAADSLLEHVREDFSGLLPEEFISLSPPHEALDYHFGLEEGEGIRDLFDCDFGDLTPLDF

B1: NSUN2-Promoter-probe (dsDNA)
DNA 1: CTGACGATTGCGCGCGAAGACCGCGCAGCCCA
DNA 2: TGGGCTGCGCGGTCTTCGCGCGCAATCGTCAG
B1: binds (E2F1 [1]).

B2: NSUN2-Promoter-probe, unlabeled competitor (dsDNA)
DNA 1: B1 DNA 1
DNA 2: B1 DNA 2
B2: binds (E2F1 [2]).

B3: NSUN2-Promoter-Mut-probe (dsDNA)
DNA 1: CTGACGATGGGATTCTTTGACCGCGCAGCCCA
DNA 2: TGGGCTGCGCGGTCAAAGAATCCCATCGTCAG
B3: no binding (E2F1 [3]).
